Columns and labels:
Assay type in all cases: biochemical
[1] = Kinetics analysis of CYP204A1 and CYPSS; settings: 4-cholesten-3-one 100 μg/ml (so in the source)
[2] = Analysis of the optimum temperature, conversion of 4-cholesten-3-one by cell-free extract; settings: for Specific activity: Tris-HCl pH 7.5, 4 hours, 4-cholesten-3-one to progesterone
Experimental: (§1) To 20 ml of the cell suspension prepared in (2) above, 680 μl of X10 Bug Buster (Novagen), 20 μl of Benzonase (Novagen), and 2 ml of 40 mg/ml lysozyme were added, and the obtained mixture was then shaken at 30° C. for 30 minutes to disintegrate the cells. Thereafter, the reaction solution was centrifuged to obtain the cell-free extract. The obtained, approximately 20 ml of cell-free extract was dialyzed against 1 L of Buffer R (20 mM KPB pH 7.4, 20% glycerol) two times, and the deposited precipitate was then removed by centrifugation. The cell-free extract obtained as a supernatant herein was used in the subsequent experiments.
Using the cell-free extract prepared in (3) above, conversion of 4-cholesten-3-one was carried out at […]. The reaction solution was prepared, such that 1 ml of the buffer comprised 215 pmol/ml CYP204A1 or 391 pmol/ml CYPSS, 64 μg/ml spinach-derived ferredoxin, 0.1 U/ml spinach-derived ferredoxin reductase protein, 3 U/ml glucose dehydrogenase, 60 mM glucose, 50 μg/ml 4-cholesten-3-one, 2 mM NADH, and 2 mM NADPH. Tris-HCl was added to the reaction solution so as to adjust it to pH 7.5. The reaction was initiated by addition of NADH and NADPH, and it was carried out at 200 rpm for 4 hours, under temperature conditions of 10° C., 15° C., 20° C., 25° C., or 30° C. Thereafter, 1.5 ml of ethyl acetate was added to the reaction solution to terminate the reaction, and extraction was carried out. Then, extraction was carried out again with 0.75 ml of ethyl acetate. The obtained ethyl acetate phase was solidified using evaporator, and the residue was then dissolved in 200 μl of methanol. Thereafter, progesterone was detected by HPLC analysis. The enzyme protein activity for conversion of 4-cholesten-3-one to progesterone under various temperature conditions is shown in Table 1.

[3] = pH stability test of cell-free extract; settings: for Relative activity: 140 hr versus 0 hr, 6° C.; for Activity 0 hr: immediately after mixing, reaction 15° C., 4 hours, pH 7.5
Experimental: as §1
0.5 ml of the cell-free extract prepared in (3) above was mixed with 0.5 ml of 50 mM buffer having various pH values, pH was then measured, and the mixture was then conserved at 6° C. for 140 hours. […] Using the prepared cell-free extracts having various pH values, conversion of 4-cholesten-3-one was carried out. The reaction was carried out, immediately after the enzyme protein solution was mixed with buffers having various pH values and after the mixed solution was conserved for 140 hours, so as to examine the stability. The reaction solution was prepared, such that 1 ml of the buffer comprised an enzyme protein solution of CYP204A1 or CYPSS having various pH values, 64 μg/ml spinach-derived ferredoxin, 0.1 U/ml spinach-derived ferredoxin reductase protein, 3 U/ml glucose dehydrogenase, 60 mM glucose, 50 μg/ml 4-cholesten-3-one, 2 mM NADH, and 2 mM NADPH. To the reaction solution, 562 μl of 200 mM Tris-HCl was added, so as to adjust the reaction solution to pH 7.5. It was confirmed that the reaction solution maintained pH 7.5, even though enzyme protein solutions having various pH values were added thereto. The reaction was initiated by addition of NADH and NADPH, and it was carried out at 200 rpm at 15° C. for 4 hours. Thereafter, 1.5 ml of ethyl acetate was added to the reaction solution to terminate the reaction, and extraction was carried out. Then, extraction was carried out again with 0.75 ml of ethyl acetate. The obtained ethyl acetate phase was solidified using an evaporator, and the residue was then dissolved in 200 μl of methanol. Thereafter, progesterone was detected by HPLC analysis.

[4] = Thermostability test of cell-free extract; settings: for Relative activity: 140 hr versus 0 hr
Experimental: as §1
The cell-free extract prepared in (3) above was conserved at various temperature for 140 hours. The conservation temperature was set at 6° C., 10° C., 20° C., 30° C., 37° C., or 45° C. Using the enzyme protein solution before conservation and the sample obtained after conservation for 140 hours, conversion of 4-cholesten-3-one was carried out, and stability was examined. The reaction solution was prepared, such that 1 ml of the buffer comprised an enzyme protein solution of CYP204A1 or CYPSS that had been conserved at each temperature, 64 μg/ml spinach-derived ferredoxin, 0.1 U/ml spinach-derived ferredoxin reductase protein, 3 U/ml glucose dehydrogenase, 60 mM glucose, 50 μg/ml 4-cholesten-3-one, 2 mM NADH, and 2 mM NADPH. The reaction was initiated by addition of NADH and NADPH, and it was carried out at 200 rpm at 15° C. for 4 hours. Thereafter, 1.5 ml of ethyl acetate was added to the reaction solution to terminate the reaction, and extraction was carried out. Then, extraction was carried out again with 0.75 ml of ethyl acetate. The obtained ethyl acetate phase was solidified using an evaporator, and the residue was then dissolved in 200 μl of methanol. Thereafter, progesterone was detected by HPLC analysis. […] In particular, when the cell-free extract was conversed at 20° C. for 140 hours, CYP204A1 maintained 47% of its activity and CYPSS maintained 39% of its activity.

enzyme protein activity in comparison with that at 10 μM 4-cholesten-3-one [1]: 90%
B1: Sphingomonas subterranea NBRC16086 P450scc CYPSS204A (CYPSS), wild type, SEQ ID NO: 2 (Novosphingobium subterraneum) (protein)
chain: MASAAAGADGLPLLDGGVPLLGHLAQFFRDPVSVLKRGYRSKGRLFAMNFMGQRMNVMLGPEHNRFFFEETDKLLSIRESMPFFLKMFSPEFYSFAEMDEYLRQRAIIMPRFKAASMKQYVPVMVEESLNLVERLGEEGEFDLIPTLGPVVMDIAAHSFMGREFHEKLGHEFFELFRDFSGGMEFVLPLWLPTPKMVKSQRAKKKLHAILQSWIDKRRASPLDPPDFFQTMIETKYPDGRAVPDEIIRHLILLLVWAGHETTAGQVSWALADLLQNPGYQQVLREEVASLLGGSDGRALGWEQAVAMEKMDLALRETERLHPVAYMLSRKASADIERDGYRIRKGEFVLLAPSVSHRMEETFRNADAYDPERFNPQNPDAQIESNSLIGFGGGVHRCAGVNFARMEMKVLVAILLQNFDMELIDEVRPIAGASTYWPAQPCRVRYKRRKLDGAGGSADVAALAKAAGCPAHA
Specific activity ([2]; 10° C.): 918 g/h/mol | Specific activity ([2]; 15° C.): 1279 g/h/mol | Specific activity ([2]; 20° C.): 1133 g/h/mol | Specific activity ([2]; 25° C.): 936 g/h/mol | Specific activity ([2]; 30° C.): 465 g/h/mol | optimum temperature for action (temperature of highest activity) ([2]; conversion of 4-cholesten-3-one to progesterone, pH 7.5): 15 °C | Relative activity ([3]; AcB pH 6.0): 37% | Activity 140 hr ([3]; AcB pH 6.0, conserved at 6° C. for 140 hours): 2.7 µg/mL | Activity 0 hr ([3]; AcB pH 6.0): 7.3 µg/mL | Relative activity ([3]; KPB pH 6.7): 61% | Activity 140 hr ([3]; KPB pH 6.7, conserved at 6° C. for 140 hours): 4.3 µg/mL | Activity 0 hr ([3]; KPB pH 6.7): 7.1 µg/mL | Relative activity ([3]; KPB pH 7.2): 73% | Activity 140 hr ([3]; KPB pH 7.2, conserved at 6° C. for 140 hours): 5.3 µg/mL | Activity 0 hr ([3]; KPB pH 7.2): 7.3 µg/mL | Relative activity ([3]; KPB pH 7.6): 85% | Activity 140 hr ([3]; KPB pH 7.6, conserved at 6° C. for 140 hours): 5.5 µg/mL | Activity 0 hr ([3]; KPB pH 7.6): 6.5 µg/mL | pH at which most stable ([3]; KPB, conserved at 6° C. for 140 hours): 7.6 | Relative activity ([3]; TES pH 7.5): 71% | Activity 140 hr ([3]; TES pH 7.5, conserved at 6° C. for 140 hours): 5.2 µg/mL | Activity 0 hr ([3]; TES pH 7.5): 7.3 µg/mL | Relative activity ([3]; Tris pH 7.4): 63% | Activity 140 hr ([3]; Tris pH 7.4, conserved at 6° C. for 140 hours): 5 µg/mL | Activity 0 hr ([3]; Tris pH 7.4): 8 µg/mL | Relative activity ([3]; Tris pH 8.1): 65% | Activity 140 hr ([3]; Tris pH 8.1, conserved at 6° C. for 140 hours): 4.5 µg/mL | Activity 0 hr ([3]; Tris pH 8.1): 6.9 µg/mL | Relative activity ([3]; Tris pH 8.9): 51% | Activity 140 hr ([3]; Tris pH 8.9, conserved at 6° C. for 140 hours): 3.7 µg/mL | Activity 0 hr ([3]; Tris pH 8.9): 7.3 µg/mL | Activity 140 hr ([4]; conserved at 6° C. for 140 hours): 11.6 µg/mL | Relative activity ([4]; conserved at 6° C.): 81% | Activity 140 hr ([4]; conserved at 10° C. for 140 hours): 10.5 µg/mL | Relative activity ([4]; conserved at 10° C.): 73% | Activity 140 hr ([4]; conserved at 20° C. for 140 hours): 5.6 µg/mL | Activity 140 hr ([4]; conserved at 30° C. for 140 hours): 1 µg/mL | Relative activity ([4]; conserved at 30° C.): 7% | Activity 140 hr ([4]; conserved at 37° C. for 140 hours): 0 µg/mL | Relative activity ([4]; conserved at 37° C.): 0% | Activity 140 hr ([4]; conserved at 45° C. for 140 hours): 0 µg/mL | Relative activity ([4]; conserved at 45° C.): 0% | Activity 0 hr ([4]; enzyme protein solution before conservation, reaction 15° C., 4 hours): 14.4 µg/mL

Reference: patent US20120178124A1, “STEROL SIDE CHAIN-CLEAVING ENZYME PROTEIN AND USE THEREOF” (MITSUBISHI CHEMICAL CORPORATION, priority 2009, published 2012)
